# Source: patent US6355785
# pIC50: −log10 of the molar value.
# Key:
# [1] = target: HIV-1 gp120 (Human immunodeficiency virus 1) (UniProt P04578); test: competition; settings: ID50 for gp120, gp120-CD4 interaction
# [2] = target: T1, SIV integrase (Simian immunodeficiency virus) (UniProt P05897); test: inhibition; settings: PS at first and last internucleoside linkages (pPT), 3'-OH; 3'-processing
# T1 sequence: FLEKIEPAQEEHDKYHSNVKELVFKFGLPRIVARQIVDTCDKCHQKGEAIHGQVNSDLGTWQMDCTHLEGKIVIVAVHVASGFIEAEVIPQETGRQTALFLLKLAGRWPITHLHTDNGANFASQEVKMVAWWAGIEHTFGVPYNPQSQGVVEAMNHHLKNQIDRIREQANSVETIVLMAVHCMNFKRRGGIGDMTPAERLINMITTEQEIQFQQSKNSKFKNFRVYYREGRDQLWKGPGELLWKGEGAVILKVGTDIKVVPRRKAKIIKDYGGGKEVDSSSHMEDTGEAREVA
# [3] = target: HIV-1 integrase wild-type (IN1-288) (Human immunodeficiency virus 1) (UniProt P12497); test: inhibition; settings: I, 3'-processing
sequence,measurement,setting,value
GATCCATGTCAGTGACAC [1231 random GATC],pIC50,"[1]; phosphodiester, 3'-amine",< 4.00
GATCCATGTCAGTGACAC [1232 random GATC],pIC50,"[1]; PS all linkages, 3'-amine",< 5.00
GGGTGGGTGGGTGGGTGG [1173],pIC50,"[1]; phosphodiester, 3'-amine",< 4.00
GGGTGGGTGGGTGGGTGG [1174],pIC50,"[1]; PS all linkages, 3'-amine",7.05
GTGGTGGGTGGGTGGGT [T30177 (AR177)],pIC50,[2],6.38
GTGGTGGGTGGGTGGGTGGTGGGTGGTGGTTGTGGGTGGGTGGTG [I100-07],pIC50,"[1]; phosphodiester, 3'-amine",6.10
GTGGTGGGTGGGTGGGTGGTGGGTGGTGGTTGTGGGTGGGTGGTG [I100-21],pIC50,"[1]; PS all linkages, 3'-amine",7.15
GTTGGGGGTTGTTGGTGGGGTGGTGG [I100-00],pIC50,"[1]; phosphodiester, 3'-propanolamine",5.46
GTTGGGGGTTGTTGGTGGGGTGGTGG [I100-12],pIC50,"[1]; PS all linkages, 3'-amine",7.10
TCTTCCTCTCTCTACCCACGCTCIC [T30531 antisense GEM91 variant PT],pIC50,"[3]; PS all linkages, strand transfer 0.036",7.52
TCTTCCTCTCTCTACCCACGCTCIC [T30658 antisense GEM91 variant PD],pIC50,"[3]; all phosphodiester, strand transfer >0.5",< 6.30
TCTTCCTCTCTCTACCCACGCTCIC [T30662 antisense GEM91 variant pPT],pIC50,"[3]; PS at first and last linkages (pPT), strand transfer >0.5",< 6.30
